According to the supplement of paper PMC7877785:
± gives the uncertainty stated by the source.

Assay: self-splicing fitness, log relative to wild type (ln ratio); higher = more splicing; Tetrahymena group I intron in knt gene, E. coli kanamycin selection, DiMSum; sequences stand for … in CUCUCU…GGAGGGAAAAGUUAUCAGGCAUGCACCUGGUAGCUAGUCUUUAAACCAAUAGAUUGCAUCGGUUUAAAAGGCAAGACCGUCAAAUUGCGGGAAAGGGGUCAACAGCCGUUCAGUACCAAGUCUCAGGGGAAACUUUGAGAUGGCCUUGCAAAGGGUAUGGUAAUAAGCUGACGGACAUGGUCCUAACCACGCAGCCAAGUCCUAAGUCAACAGAUCUUCUGUUGAUAUGGAUGCAGUUCACAGACUAAAUGUCGGUCGGGGAAGAUGUAUUCUUCUCAUAAGAUAUAGUCGGACCUCUCCUUAAUGGGAGCUAGCGGAUGAAGUGAUGCAACACUGGAGCCGCUGGGAACUAAUUUGUAUGCGAAAGUAUAUUGAUUAGUUUUGGAGUACUCGUGGUCG
Procedure, shortened: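 DiMSum derived fitness as the error-weighted combination of fold changes across replicates, kanamycin versus no kanamycin, normalised to wild type. E. coli BL21(DE3) held the library, which randomised all eight P1ex-region intron nucleotides within the knt kanamycin-resistance gene on pET-22b(+). Six replicate transformations grew overnight at 37°C or 30°C on LB agar with or without 25 μg/mL kanamycin, also containing 100 μg/mL carbenicillin, 50 μM IPTG and 0.2% rhamnose, and pooled colonies were amplicon-sequenced on an Illumina HiSeq 2500.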

Sequence	self-splicing fitness (ln) (30 °C)	self-splicing fitness (ln) (37 °C)
GCGCAGCAAUAUUACGCGGG	-2.93 ± 0.1	-1.37 ± 0.097
UUGCAGCAAUAUUACGUAUG	-1.8 ± 0.081	-1.11 ± 0.12
GUCCAGCAAUAUUACGCAGC	-0.998 ± 0.17	0.198 ± 0.14
GUUUAGCAAUAUUACGGCCC	-1.66 ± 0.29	–
GCAUAGCAAUAUUACGCAGA	-2.62 ± 0.31	-2.06 ± 0.17
UUAAAGCAAUAUUACGUCGU	-1.76 ± 0.11	-0.737 ± 0.12
GCCAAGCAAUAUUACGCCUC	-1.32 ± 0.1	-0.316 ± 0.1
AUCUAGCAAUAUUACGGUUU	-1.13 ± 0.13	-0.53 ± 0.13
CUGCAGCAAUAUUACGAAGG	-2.05 ± 0.13	-1.06 ± 0.16
UGGGAGCAAUAUUACGAAGG	–	-1.1 ± 0.41
GCCAAGCAAUAUUACGCAUA	-1.3 ± 0.09	-0.709 ± 0.085
GUACAGCAAUAUUACGCGCC	-2.15 ± 0.21	-1.49 ± 0.34
AUUGAGCAAUAUUACGGUCA	-2.13 ± 0.19	-0.756 ± 0.13
UGUAAGCAAUAUUACGCGAC	-2.37 ± 0.27	-2.4 ± 0.36
CACGAGCAAUAUUACGGUGA	-3.17 ± 0.23	-2.98 ± 0.19
ACCUAGCAAUAUUACGGCGC	-0.607 ± 0.097	0.63 ± 0.13
AACCAGCAAUAUUACGUCCU	0.026 ± 0.043	-0.134 ± 0.053
GAAAAGCAAUAUUACGCUCA	-0.514 ± 0.11	0.0911 ± 0.14
ACAGAGCAAUAUUACGUGUG	-2.65 ± 0.12	-2.99 ± 0.14
UUGUAGCAAUAUUACGGACU	-1.65 ± 0.14	-0.723 ± 0.16
UAGCAGCAAUAUUACGACGA	-0.341 ± 0.07	0.256 ± 0.079
AUUAAGCAAUAUUACGAAGG	-3.82 ± 0.4	-2.5 ± 0.44
GCUGAGCAAUAUUACGUGUG	-3.29 ± 0.12	-1.9 ± 0.1
UCAGAGCAAUAUUACGGAGC	-3.49 ± 0.36	-1.44 ± 0.36
GCGGAGCAAUAUUACGGUCG	-3.61 ± 0.26	-2.41 ± 0.21

Sequence	self-splicing fitness (ln) (30 °C)	self-splicing fitness (ln) (37 °C)
CUACAGCAAUAUUACGUCCU	-3.25 ± 0.18	-2.38 ± 0.17
GUAUAGCAAUAUUACGGGUA	-2.56 ± 0.27	-1.28 ± 0.19
CAGGAGCAAUAUUACGCGGU	–	-3.29 ± 0.47
ACUUAGCAAUAUUACGCGGA	-2.36 ± 0.11	-0.613 ± 0.088
UCGGAGCAAUAUUACGUGAU	–	-3.24 ± 0.47
ACUCAGCAAUAUUACGCGCU	-1.41 ± 0.14	-0.1 ± 0.16
CUGCAGCAAUAUUACGUUAU	-3.94 ± 0.17	-3.07 ± 0.3
AGGUAGCAAUAUUACGAGUG	-2.867 ± 0.019	-1.58 ± 0.034
GCCGAGCAAUAUUACGCGAG	-3.29 ± 0.32	-2.03 ± 0.32
UAUGAGCAAUAUUACGCAUG	-2.53 ± 0.11	-1.76 ± 0.15
AGUCAGCAAUAUUACGCUUC	-2.35 ± 0.2	-1.79 ± 0.21
AAUUAGCAAUAUUACGUGGA	-3.12 ± 0.2	-2.27 ± 0.17
GUAUAGCAAUAUUACGACCA	-0.996 ± 0.17	-0.193 ± 0.17
UUCGAGCAAUAUUACGUCUA	-1.29 ± 0.15	-0.414 ± 0.13
CUUGAGCAAUAUUACGACAG	-1.19 ± 0.1	-0.98 ± 0.14
CACAAGCAAUAUUACGCCGG	-0.875 ± 0.081	-0.35 ± 0.095
UUGAAGCAAUAUUACGGUAU	-2.49 ± 0.11	-1.5 ± 0.18
UACAAGCAAUAUUACGGGCG	-0.448 ± 0.1	-0.308 ± 0.11
UGGAAGCAAUAUUACGAUAG	-2.51 ± 0.2	-0.419 ± 0.17
CAAGAGCAAUAUUACGCAUG	-3.69 ± 0.44	-2.53 ± 0.29
UAUGAGCAAUAUUACGUGCU	-3.7 ± 0.32	-2.39 ± 0.34
UUUAAGCAAUAUUACGCCUG	-0.642 ± 0.14	-0.13 ± 0.14
GUAAAGCAAUAUUACGGGUG	-1.6 ± 0.065	-0.848 ± 0.091
UCGAAGCAAUAUUACGAGGC	–	-2.15 ± 0.49
AGAAAGCAAUAUUACGAGAA	-2.63 ± 0.27	-1.24 ± 0.25

Sequence	self-splicing fitness (ln) (30 °C)	self-splicing fitness (ln) (37 °C)
UCGGAGCAAUAUUACGUUAG	–	-2.12 ± 0.22
UCGCAGCAAUAUUACGACGU	-1.46 ± 0.076	-0.706 ± 0.074
UUCCAGCAAUAUUACGCACG	-1.72 ± 0.086	-0.884 ± 0.13
CCUGAGCAAUAUUACGGGCC	-3.87 ± 0.31	-2.45 ± 0.23
ACCUAGCAAUAUUACGGAAG	-2.8 ± 0.23	-2.38 ± 0.19
CGGGAGCAAUAUUACGUCUG	-3.61 ± 0.22	-2.03 ± 0.22
CCUAAGCAAUAUUACGAGAA	-2.67 ± 0.36	–
AUUGAGCAAUAUUACGGCGA	-1.96 ± 0.16	-0.878 ± 0.15
ACGAAGCAAUAUUACGCUGU	-2.16 ± 0.13	-0.576 ± 0.11
CUUGAGCAAUAUUACGAACU	-4.03 ± 0.46	-2.09 ± 0.32
ACUAAGCAAUAUUACGUUUU	-2.55 ± 0.093	-1.54 ± 0.1
UAUAAGCAAUAUUACGCACU	0.11 ± 0.12	-0.923 ± 0.12
GCGCAGCAAUAUUACGUGUA	-0.699 ± 0.071	-0.0774 ± 0.077
UCAUAGCAAUAUUACGCAUG	-4.52 ± 0.27	-2.77 ± 0.23
UGUUAGCAAUAUUACGGGAU	-1.94 ± 0.23	–
UUGGAGCAAUAUUACGAUCA	0.364 ± 0.35	-0.451 ± 0.45
GUAAAGCAAUAUUACGUUUU	-2.7 ± 0.076	-1.9 ± 0.1
GUGGAGCAAUAUUACGAAGG	-2.69 ± 0.27	-2 ± 0.4
CACAAGCAAUAUUACGAAUC	-4.04 ± 0.46	-2.37 ± 0.18
GGAGAGCAAUAUUACGGGUA	-3.5 ± 0.28	-2.62 ± 0.2
UCGGAGCAAUAUUACGGACA	–	-1.38 ± 0.37
GUUUAGCAAUAUUACGCUAU	–	-1.56 ± 0.29
AACAAGCAAUAUUACGAUCG	-1.4 ± 0.076	-0.996 ± 0.097
CGCUAGCAAUAUUACGCGCU	-3.85 ± 0.25	-2.75 ± 0.22
GCGCAGCAAUAUUACGCGCG	-3.1 ± 0.32	–

Sequence	self-splicing fitness (ln) (30 °C)	self-splicing fitness (ln) (37 °C)
GAGCAGCAAUAUUACGUCGG	-4.09 ± 0.31	-3.07 ± 0.28
UUUUAGCAAUAUUACGGUCU	-2.23 ± 0.17	-1.35 ± 0.2
AGACAGCAAUAUUACGCAAU	-2.41 ± 0.17	-0.644 ± 0.11
UGAAAGCAAUAUUACGAGGG	-2.91 ± 0.17	-3.6 ± 0.42
AUUCAGCAAUAUUACGGGGG	-2.77 ± 0.15	-2.14 ± 0.16
UUGAAGCAAUAUUACGCUGA	-1.61 ± 0.15	-0.574 ± 0.19
GAUUAGCAAUAUUACGUAAC	-1.94 ± 0.17	0.224 ± 0.14
CGCUAGCAAUAUUACGCAUG	-2.04 ± 0.12	-1.24 ± 0.16
GACUAGCAAUAUUACGAAUG	-2.65 ± 0.18	-1.93 ± 0.17
CUGAAGCAAUAUUACGCCGA	-1.44 ± 0.22	–
ACUCAGCAAUAUUACGGGUU	-3.64 ± 0.17	-2.37 ± 0.19
CCAUAGCAAUAUUACGUGAU	-2.78 ± 0.097	-2.76 ± 0.16
GUCAAGCAAUAUUACGUCCG	–	-3.83 ± 0.39
UCUCAGCAAUAUUACGUUUG	-4.44 ± 0.19	-3.1 ± 0.15
AUUUAGCAAUAUUACGACCG	-1.54 ± 0.24	-0.522 ± 0.23
GCUCAGCAAUAUUACGCGGG	-3.41 ± 0.2	-2.78 ± 0.2
AACAAGCAAUAUUACGAUAC	-3.73 ± 0.19	-1.71 ± 0.12
AACAAGCAAUAUUACGCCGA	-1.45 ± 0.12	-1.27 ± 0.12
AAUAAGCAAUAUUACGUGCU	-1.8 ± 0.074	-1.29 ± 0.08
UCCUAGCAAUAUUACGACAA	–	-2.04 ± 0.29
UCACAGCAAUAUUACGGCCA	-1.78 ± 0.28	-1.19 ± 0.21
GAUUAGCAAUAUUACGGGCU	-2.8 ± 0.15	-1.28 ± 0.12
GAGUAGCAAUAUUACGUAUG	-2.85 ± 0.13	-2.51 ± 0.19
UGGGAGCAAUAUUACGAACU	-0.981 ± 0.1	-1.42 ± 0.19
